According to the supplement of paper PMC9112550, “Optimization of the antimicrobial peptide Bac7 by deep mutational scanning” (BMC Biology, 2022):

system: Escherichia coli TOP10; assay: shrunken log2 fold change of peptide-encoding DNA abundance (4.5 h post-induction vs induction); higher = less antimicrobial activity (less host growth inhibition); conditions: time post-induction: 4.5 h; library: site-saturation at positions 5, 18, 19, 20
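Note: peptides expressed intracellularly from a pBAD plasmid library in pooled LB shake-flask culture, induced with 0.3% L-arabinose, DNA abundance read by NGS, three biological replicates, DESeq2 with apeglm shrinkage.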

| Sequence | shrunken log2 fold change |
| --- | --- |
| RRIRARPPRLPRPRPRPPLEPRP | 0.583 |
| RRIRWRPPRLPRPRPRPSVGPRP | 0.149 |
| RRIRWRPPRLPRPRPRPPYFPRP | -0.0123 |
| RRIRFRPPRLPRPRPRPQTDPRP | -0.21 |
| RRIRIRPPRLPRPRPRPNQYPRP | -0.681 |
| RRIRSRPPRLPRPRPRPFDIPRP | -0.639 |
| RRIRNRPPRLPRPRPRPLDMPRP | -0.0766 |
| RRIRMRPPRLPRPRPRPFRHPRP | 0.0701 |
| RRIRRRPPRLPRPRPRPHEYPRP | -0.0758 |
| RRIRHRPPRLPRPRPRPPDNPRP | -0.0231 |
| RRIRKRPPRLPRPRPRPPTQPRP | 0.301 |
| RRIRCRPPRLPRPRPRPYYYPRP | -0.346 |
| RRIRTRPPRLPRPRPRPFLHPRP | -0.524 |
| RRIRARPPRLPRPRPRPKEPPRP | 0.991 |
| RRIRERPPRLPRPRPRPICDPRP | -0.221 |
| RRIRMRPPRLPRPRPRPCKGPRP | -0.0617 |
| RRIRKRPPRLPRPRPRPKECPRP | 0.121 |
| RRIRDRPPRLPRPRPRPSSSPRP | 0.135 |
| RRIRPRPPRLPRPRPRPSMWPRP | -0.252 |
| RRIRYRPPRLPRPRPRPVAAPRP | 0.149 |
| RRIRNRPPRLPRPRPRPTFGPRP | -0.084 |
| RRIRCRPPRLPRPRPRPFHHPRP | -0.00672 |
| RRIRPRPPRLPRPRPRPIRNPRP | -0.0919 |
| RRIRVRPPRLPRPRPRPFIEPRP | -0.468 |
| RRIRIRPPRLPRPRPRPIPFPRP | -1.35 |

| Sequence | shrunken log2 fold change |
| --- | --- |
| RRIRTRPPRLPRPRPRPHLTPRP | 0.101 |
| RRIRSRPPRLPRPRPRPVNLPRP | -0.0294 |
| RRIRHRPPRLPRPRPRPAVWPRP | 0.261 |
| RRIRLRPPRLPRPRPRPQFMPRP | -0.462 |
| RRIRMRPPRLPRPRPRPRIQPRP | 0.203 |
| RRIRMRPPRLPRPRPRPLWSPRP | -0.0373 |
| RRIRWRPPRLPRPRPRPWACPRP | 0.0611 |
| RRIRIRPPRLPRPRPRPSNSPRP | -1.13 |
| RRIRERPPRLPRPRPRPENWPRP | -0.0337 |
| RRIRIRPPRLPRPRPRPNTPPRP | -0.487 |
| RRIRGRPPRLPRPRPRPLHYPRP | -0.0826 |
| RRIRQRPPRLPRPRPRPYSRPRP | -0.0567 |
| RRIRIRPPRLPRPRPRPWGFPRP | -0.185 |
| RRIRTRPPRLPRPRPRPADPPRP | 0.0203 |
| RRIRSRPPRLPRPRPRPQPWPRP | 0.366 |
| RRIRARPPRLPRPRPRPTFWPRP | 0.445 |
| RRIRARPPRLPRPRPRPNDFPRP | -0.214 |
| RRIRGRPPRLPRPRPRPLEDPRP | 0.205 |
| RRIRERPPRLPRPRPRPCFEPRP | -0.258 |
| RRIRDRPPRLPRPRPRPVYNPRP | -0.00379 |
| RRIRIRPPRLPRPRPRPQGYPRP | -0.0157 |
| RRIRMRPPRLPRPRPRPQHQPRP | 0.214 |
| RRIRVRPPRLPRPRPRPNMKPRP | -0.524 |
| RRIRPRPPRLPRPRPRPGAFPRP | 0.293 |
| RRIRPRPPRLPRPRPRPTNMPRP | -0.298 |

| Sequence | shrunken log2 fold change |
| --- | --- |
| RRIRGRPPRLPRPRPRPNPAPRP | 0.231 |
| RRIRKRPPRLPRPRPRPNFIPRP | -0.144 |
| RRIRLRPPRLPRPRPRPFQWPRP | -0.0972 |
| RRIRLRPPRLPRPRPRPEFQPRP | -0.0134 |
| RRIRCRPPRLPRPRPRPDKLPRP | 0.0152 |
| RRIRKRPPRLPRPRPRPDPYPRP | -0.0561 |
| RRIRIRPPRLPRPRPRPNWRPRP | 0.0227 |
| RRIRSRPPRLPRPRPRPSKIPRP | -0.378 |
| RRIRKRPPRLPRPRPRPFQMPRP | -0.28 |
| RRIRCRPPRLPRPRPRPRQFPRP | 0.0823 |
| RRIRARPPRLPRPRPRPHPYPRP | -0.484 |
| RRIRGRPPRLPRPRPRPCKDPRP | -0.0805 |
| RRIRWRPPRLPRPRPRPVQTPRP | 0.459 |
| RRIRDRPPRLPRPRPRPLENPRP | 0.035 |
| RRIRSRPPRLPRPRPRPTVFPRP | 0.222 |
| RRIRCRPPRLPRPRPRPQERPRP | -0.028 |
| RRIRRRPPRLPRPRPRPCTHPRP | 0.176 |
| RRIRIRPPRLPRPRPRPIALPRP | -0.149 |
| RRIRCRPPRLPRPRPRPRKSPRP | 0.126 |
| RRIRCRPPRLPRPRPRPHVTPRP | -0.64 |
| RRIRNRPPRLPRPRPRPLLEPRP | 0.0286 |
| RRIRMRPPRLPRPRPRPCHHPRP | -0.353 |
| RRIRERPPRLPRPRPRPSSEPRP | -0.137 |
| RRIRWRPPRLPRPRPRPMSIPRP | -0.191 |
| RRIRWRPPRLPRPRPRPRVDPRP | 0.39 |

| Sequence | shrunken log2 fold change |
| --- | --- |
| RRIRPRPPRLPRPRPRPYILPRP | -0.588 |
| RRIRKRPPRLPRPRPRPERGPRP | 0.443 |
| RRIRERPPRLPRPRPRPIVRPRP | -0.0604 |
| RRIRNRPPRLPRPRPRPMYAPRP | -0.192 |
| RRIRCRPPRLPRPRPRPHAEPRP | 0.315 |
| RRIRYRPPRLPRPRPRPGSGPRP | -0.0839 |
| RRIRMRPPRLPRPRPRPVQPPRP | 0.229 |
| RRIRIRPPRLPRPRPRPSKQPRP | -0.18 |
| RRIRYRPPRLPRPRPRPFAVPRP | -1.09 |
| RRIRPRPPRLPRPRPRPVHEPRP | 0.497 |
| RRIRRRPPRLPRPRPRPHDNPRP | -0.13 |
| RRIRTRPPRLPRPRPRPTYSPRP | -1.56 |
| RRIRNRPPRLPRPRPRPWVNPRP | -0.00663 |
| RRIRLRPPRLPRPRPRPYLTPRP | -0.663 |
| RRIRQRPPRLPRPRPRPQCNPRP | -0.0983 |
| RRIRARPPRLPRPRPRPYMEPRP | -0.348 |
| RRIRARPPRLPRPRPRPRFAPRP | 0.513 |
| RRIRVRPPRLPRPRPRPMDSPRP | -0.134 |
| RRIRTRPPRLPRPRPRPNPVPRP | -0.0168 |
| RRIRGRPPRLPRPRPRPIHIPRP | 0.304 |
| RRIRCRPPRLPRPRPRPENKPRP | -0.415 |
| RRIRHRPPRLPRPRPRPWNPPRP | -0.221 |
| RRIRIRPPRLPRPRPRPYASPRP | -0.206 |
| RRIRQRPPRLPRPRPRPLRGPRP | 0.664 |
| RRIRQRPPRLPRPRPRPVCSPRP | -0.21 |

| Sequence | shrunken log2 fold change |
| --- | --- |
| RRIRNRPPRLPRPRPRPYCAPRP | -1.05 |
| RRIRNRPPRLPRPRPRPQKEPRP | -0.0193 |
| RRIRKRPPRLPRPRPRPYFVPRP | -0.264 |
| RRIRTRPPRLPRPRPRPYLMPRP | -0.601 |
| RRIRSRPPRLPRPRPRPRCHPRP | -0.0928 |
| RRIRMRPPRLPRPRPRPINGPRP | 0.0854 |
| RRIRPRPPRLPRPRPRPPAWPRP | 0.452 |
| RRIRFRPPRLPRPRPRPSEIPRP | -0.345 |
| RRIRERPPRLPRPRPRPHKTPRP | 0.0137 |
| RRIRMRPPRLPRPRPRPDWWPRP | 0.218 |
| RRIRSRPPRLPRPRPRPKFGPRP | -0.15 |
| RRIRPRPPRLPRPRPRPDNFPRP | -1.15 |
| RRIRVRPPRLPRPRPRPARVPRP | 0.263 |
| RRIRWRPPRLPRPRPRPSPVPRP | -0.0363 |
| RRIRPRPPRLPRPRPRPWSFPRP | -0.185 |
| RRIRFRPPRLPRPRPRPKTFPRP | -0.18 |
| RRIRDRPPRLPRPRPRPDHYPRP | -0.183 |
| RRIRWRPPRLPRPRPRPDFDPRP | 0.0791 |
| RRIRRRPPRLPRPRPRPNHTPRP | -0.306 |
| RRIRRRPPRLPRPRPRPWEAPRP | 0.155 |
| RRIRNRPPRLPRPRPRPTVGPRP | -0.0817 |
| RRIRDRPPRLPRPRPRPFSDPRP | -0.016 |
| RRIRLRPPRLPRPRPRPMLQPRP | -0.0201 |
| RRIRARPPRLPRPRPRPTCAPRP | 0.863 |
| RRIRGRPPRLPRPRPRPTGKPRP | 0.899 |
